Data reported in patent US20200299403A1.

Columns and labels:
[1] = molecular target: HER2 (HER2/c-erb-2 gene product) on SKBR3 cells (UniProt P04626); assay: FACS on SKBR3 cells, one site specific binding fit
[2] = molecular target: HER2 (HER2/c-erb-2 gene product) on SKBR3 cells (UniProt P04626); assay: FACS on SKBR3 cells, Alexa 647 Protein L detection, one site specific binding fit (column head prints 'SKBR3 Cell Binding IC50, nM')

Substance | Kd [1] [nM] | Kd [2] [nM]
scFv-Fc (-1) pN3F DBCO-MMAF (Fc fusion) | 6.8 | –
trastuzumab scFv (VL_VH) with pN3F at position (-1), conjugated to DBCO-MMAF | – | 14
